{
  "source": "patent US20230039279",
  "key": {"[1]": {"target": "T1, MMP-9 sensitive peptide (GPRSLSG-RRCG) linked ibuprofen (not fully specified)", "T1 chain": "GPRSLSGRRCG"}, "[2]": {"target": "T2, HNE peptide substrate H2, GRCR-PMAVVQSVP-RCRG (not fully specified)", "T2 chain": "GRCRPMAVVQSVPRCRG"}},
  "data": [
    {"protein": "human neutrophil elastase (HNE) (protein) IVGGRRARPHAWPFMVSLQLRGGHFCGATLIAPNFVMSAAHCVANVNVRAVRVVLGAHNLSRREPTRQVFAVQRIFENGYDPVNLLNDIVILQLNGSATINANVQVAQLPAQGRRLGNGVQCLAMGWGLLGRNRGIASVLQELNVTVVTSLCRRSNVCTLVRGRQAGVCFGDSGSPLVCNGLIHGIASFVRGGCASGLYPDAFAPVAQFVNWIDSIIQ", "values": [
      {"measurement": "maximum cumulative drug release at 48 hours from the dual-responsive conjugate hydrogel, HNE alone (1 µg/ml)", "setting": "[1]", "result": "maximum cumulative drug release reached 24%, which was much lower than the release in enzyme MMP-9 solution"},
      {"measurement": "specificity of protease-triggered ibuprofen liberation (FIG. 10B)", "setting": "[1]", "result": "the peptide sequence, GPRSLSGRRCG (SEQ ID NO: 20), as a spacer illustrated a good specificity toward MMP-9 compared to cathepsin B and human neutrophil elastase (HNE)"},
      {"measurement": "degradation of H2-M2 combinational hydrogel and release of PLGA particles over 24 hours", "setting": "[2]", "result": "H2 and M2 peptide substrates were preferentially cleaved by HNE and MMP-9 proteases respectively"}
    ]}
  ]
}
